Reference: the RNAGym collection of RNA variant scans (doi:10.1093/nar/gkz1192)

B1: CPEB3 Ribozyme (parent)
chain: UAACAGGGGGCCACAGCAGAAGCGUUCACGUCGCAGCCCCUGUCAGAUUCUGGUGAAUCUGCGAAUUCUGCUGUAUAUCUC

Variants of: B1
Experiment: self-cleavage, relative activity (ratio to wild type); higher = more cleavage; in vitro, sequencing
In short: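 Relative activity compares each variant's cleaved/total read fraction with that of the unmutated ribozyme. To get these fractions, barcoded CPEB3 ribozyme libraries from rounds of error-prone PCR were transcribed with T7 RNA polymerase for 5 hours at 37°C and then given 15 min of DNase I treatment before EDTA was added. The RNAs were reverse transcribed with template switching and sequenced on Illumina, and DNA sequencing linked barcodes to variants. A minimum of 5 reads applied, and three batches were averaged.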

Variant	self-cleavage
G70A U76A	0.8
G70A U76C	0.75
U67C U80A	0.32
U67C U80C	0.4
C68A A75U	0.28
A75C U78C	1.15
U69C C79U	0.74
U69C C79G	0.72
U69G C71A	0.09
C68A U76C	0.54
G73U C79U	1.32
U74G U78C	1.26
U74G U78A	1.26
U69G U78C	0.71
U69G U78A	0.45
U69G	0.74
U69A	0.63
U69C	0.59
U74G U76C	1.16
U72A C81A	1.26
U72A C81U	1.11
U72A C81G	1.24
U74C	1.23
U74G	1.24

Variant	self-cleavage
U74A	1.25
G70A U74C	0.69
G70A U74A	0.73
G70U U78A	0.48
U67G A77C	0.32
U67C U72G	0.22
U67C U72A	0.33
U67C U72C	0.29
U74C U78G	1.17
U74C U78C	1.3
U74C U78A	1.29
C68U U80C	1.08
U72C U80A	1.24
U72C U80G	1.23
U72C U80C	1.24
G70C U80C	0.22
G73U U76C	1.21
G73A A75G	1.19
A75C U76G	1.25
G70A	0.55
G70C	0.31
G70U	0.37
C68A U74G	0.68
C68A U74A	0.52

Variant	self-cleavage
C68A U74C	0.86
C68G U72C	0.48
U67C C79A	0.49
U67C C79U	0.32
U72C C79G	1.05
U72C C79U	1.16
U72C C79A	1.3
U69A C71G	0.22
U69A C71U	0.33
A75G	1.01
A75C	1.2
U67G U74C	0.6
U67G U78A	0.67
U67G U78C	0.3
G70U U72C	0.42
G70U U72G	0.35
U72A U74C	1.16
U72A U74A	1.34
G73U U80C	1.28
U67C C71G	0.21
G73A U78C	1.32
C68U U69A	0.22
C68U U69C	0.43
C68U U69G	0.39

Variant	self-cleavage
C68U	1.06
C68A	0.41
C68G	0.47
U74A U76C	1.34
G70C U78A	0.17
U69C U72A	0.36
U69C U72C	0.37
U69C U72G	0.35
U74C C79A	1.31
U74C C79G	1.45
U67C U76C	0.3
U67C U76A	0.3
U67C A75G	0.35
U67C A75U	0.26
U69A A77U	0.75
U69A A77G	0.72
G70A C71U	0.41
G70A C71G	0.23
G73A U74A	1.25
C71U U76C	0.84
U67C C81G	0.16
U67C C81U	0.37
U74C A77U	1.26
U74C A77G	1.32

Variant	self-cleavage
U69C A75G	0.5
U69C A75U	0.44
C68A U78C	0.5
U72C A75G	1.14
U72C A75U	1.25
G73A U76C	1.26
U74A U80A	1.26
U74A U80C	1.24
C68A G73U	0.85
U69A G70A	0.24
U72C U78G	1.16
U72C U78C	1.15
U72C U78A	1.2
U67G U72A	0.36
U67G U72C	0.14
G70U A77G	0.4
U69G U74C	0.38
U69G U74G	0.97
U74A A77G	1.26
C68U U72C	0.93
C68U U72G	0.95
C68U U72A	0.35
U72C A77C	1.07
U72C A77U	1.21

Variant	self-cleavage
U72C A77G	1.18
U72G A77U	0.71
U72G A77G	1
U67G U69C	0.5
U67C A77U	0.34
U67C A77G	0.3
C71G U72C	0.44
U72C U76C	1.16
U72C U76A	1.23
U72C U76G	1.23
U69G C79U	0.72
C71G A75G	0.62
U69G A77U	0.27
U69G A77G	0.78
C71A A75U	0.17
C68A U80C	0.53
U69A U80C	0.56
U69A U80G	0.76
U69A U80A	0.74
G70A U78A	0.43
G70A U78C	0.8
G70A U78G	0.46
U67C U69C	0.32
U67C U69A	0.33

Variant	self-cleavage
U67C U69G	0.45
U72G A75G	1.2
U67G	0.4
U67C	0.32
U74A U78A	1.18
U74A U78C	1.23
U67C C68A	0.38
U67C C68U	0.46
U72A U80A	1.11
U72A U80C	1.29
U72A U80G	0.99
U72G U74C	1.04
G70C C71U	0.3
C71U U72C	1.02
C71U U72G	0.62
G70A U72A	0.33
G70A U72C	0.42
C71U U80A	0.72
C71U U80C	1.23
U72C C81A	1.05
U72C C81U	1.23
G73C U80C	1.29
U72G U80C	1.19
U69A G73C	0.65

Variant	self-cleavage
U69A G73U	0.93
U69A G73A	1.16
U72G G73A	1.3
C68A U69A	0.25
C68A U69G	0.42
C68A U69C	0.17
U74G A75U	1.29
U74G A75G	1.26
U67G U80C	0.34
U67G U80A	0.4
C71A A77U	0.36
U72A U78C	0.8
U72A U78A	0.72
U72A U76A	0.72
U72A U76C	0.97
U72A U76G	0.54
G70U U74C	0.26
C68U A75G	0.67
C68U A75U	1.02
U74C U76C	1.2
U74C U76A	1.3
C71G U78C	0.36
U69G A75U	0.78
U69C G70C	0.22

Variant	self-cleavage
U69C G70A	0.24
U69C G70U	0.25
U69A U74C	0.96
U69A U74A	0.55
U67C G70A	0.18
U67C G70U	0.26
U67C G70C	0.39
C71G U80G	0.4
U72A C79U	0.68
C71A U72A	0.22
C71A U72C	0.41
A75G A77U	1.05
A75G A77G	0.57
U67G A75U	0.6
U67C U78G	0.12
U67C U78A	0.29
U67C U78C	0.35
U69C G73U	0.88
U69C G73A	0.99
U69G U76C	0.98
U69G U76A	0.94
U69G U80A	0.88
U69G U80C	0.82
U69G U80G	0.61

Variant	self-cleavage
U74C U80C	1.24
U74C U80A	1.28
U67C U74C	0.37
U67C U74A	0.31
G70C U72C	0.31
C68U U74C	1.19
A75C U80C	1.18
A75G C79U	1.18
U72G U78A	1.13
U72G U78C	1.01
U72G U78G	1
U69G C81A	0.86
C68U U78C	1.03
C68U U78A	1.01
A75G C81A	1.04
A75G C81U	1.18
U69C U74A	0.55
U69C U74C	0.74
U69C U74G	0.88
G70C U76A	0.11
G70A U80C	0.45
G70A U80A	1
U67G G70C	0.21
G70C A77G	0.49

Variant	self-cleavage
U69C C81A	1.16
U69C C81U	0.5
U69C C81G	0.89
U69A U78C	0.75
U69A U78A	0.92
U69A U78G	0.39
U72A G73C	1.25
U72A G73A	1.28
U67C G73C	0.46
U67C G73U	0.46
U67C G73A	0.34
C68G A77G	0.61
U72C G73A	1.25
U72C G73U	1.48
G73C	1.25
G73U	1.28
G73A	1.27
C68A U72C	0.2
C68A U72A	0.4
G70A A77G	0.53
G70A A77U	1.07
U74C C81U	1.23
U74C C81A	1.26
U74A A75G	1.31

Variant	self-cleavage
U74A A75C	1.44
U74A A75U	1.29
U69C U76A	0.75
U69C U76C	0.66
U69C U76G	0.79
C71A U78C	0.49
C71A U78G	0.11
A75G U76A	1.05
A75G U76C	0.94
C68A G70U	0.36
U69A U72A	0.33
U69A U72G	0.49
U69A U72C	0.5
G73C U78G	1.23
U69G G73A	0.98
G70U U80A	0.67
U69C U78A	0.66
U69C U78C	0.69
U69C U78G	0.61
U72G U76A	0.54
U72G U76C	0.97
G73A U80A	1.25
G73A U80C	1.36
U69A C81A	0.98

Variant	self-cleavage
U69A C81U	0.84
U72A A75G	1.12
U72A A75U	1.22
U72A A75C	0.78
C71A U80A	0.37
C71A U80C	0.63
U72A	0.81
U72G	0.98
U72C	1.13
U67G C68U	0.44
C68G U69C	0.27
U72C U74A	1.24
U72C U74C	1.22
U72C U74G	1.25
C68G U78C	0.69
C71G A77U	0.13
U72G C79U	1.21
G73A A77G	1.31
U74C A75G	1.25
U74C A75U	1.26
U69A U76C	0.7
U69A U76G	0.7
U69A U76A	0.84
U69G U72C	0.44

Variant	self-cleavage
U69G U72A	0.35
U69C C71G	0.24
U69C C71A	0.2
C68G U74A	0.43
U69C U80A	0.79
U69C U80C	0.52
U69C U80G	0.73
C71A	0.33
C71G	0.42
C71U	0.68
U69A A75U	0.66
U69A A75G	0.53
U69A A75C	0.55
U72A A77G	1.02
U72A A77U	0.89
U67G C79U	0.51
U69C A77U	0.77
U69C A77G	0.67
U69C A77C	0.54
C71U U78C	0.77
C71U U78A	0.65
C68A C81A	0.6
